T1: Coa-R0474-505 (recombinant protein) (Staphylococcus aureus strain Newman)
T1 chain: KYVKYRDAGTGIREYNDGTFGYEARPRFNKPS

T2: Efb-N30-105 (Staphylococcus aureus strain Newman, UniProt A6QG59 30-105)
T2 sequence: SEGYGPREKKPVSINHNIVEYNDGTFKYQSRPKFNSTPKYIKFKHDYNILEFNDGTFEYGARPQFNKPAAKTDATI


Key:
Coa-C (Coa 311-636) [1] = biological target: T3, Coa-C (Coa 311-636) (Staphylococcus aureus strain Newman, UniProt P08515 1-218 = GST); assay: apparent Kd from half-maximal binding in ELISA (GraphPad Prism)
T3 construct: also called rCoa-C; Coa-C311-636

[2] = biological target: T1, Coa-R0474-505 (recombinant protein); assay: as above
Coa-F (Coa 311-505) = Coa-F (Coa 311-505) (Staphylococcus aureus strain Newman, UniProt P08515 1-218 = GST); assay: as above
Coa-R (Coa 506-636) = Coa-R (Coa 506-636) (Staphylococcus aureus strain Newman); assay: ELISA, antigen coated 200 ng/well, scFv-Fc at 0.5 µg/ml
Efb-A30-67 = Efb-A30-67 (Staphylococcus aureus strain Newman, UniProt P08515 1-218 = GST; A6QG59 30-67); assay: apparent Kd from half-maximal binding in ELISA (GraphPad Prism)
Coa-C (Coa 311-636) [3] = biological target: T3, Coa-C (Coa 311-636)
[4] = biological target: T1, Coa-R0474-505 (recombinant protein)
Efb-N30-105 = biological target: T2, Efb-N30-105; assay: apparent Kd from half-maximal binding in ELISA (GraphPad Prism)
[5] = biological target: recombinant Efb-O (Efb 68-98) (Staphylococcus aureus strain Newman, UniProt P08515 1-218 = GST); assay: as above

| Binder | Kd (Coa-C (Coa 311-636) [1]) | Kd [2] | Kd (Coa-F (Coa 311-505)) | binding result (Coa-R (Coa 506-636)) | Kd (Efb-A30-67) | EC50 (read off the curve) (Coa-C (Coa 311-636) [3]) | EC50 (read off the curve) [4] | Kd (Efb-N30-105) | Kd [5] |
| --- | --- | --- | --- | --- | --- | --- | --- | --- | --- |
| FBE5-C1 (scFv, V domains shown) VH: EVQLVETRGGVVQPGRSLRLSCAASGFTFSSYGMHWVRQAPGKGLEWVAVISYDGSNKYYADSVKGRFTISRDNSKNTLYLQMNSLRAEDTAVYYCAREGTYYYDSSGYYEGGFDYWGQGTLVTVSS VL: QSVLTQPPSASGTPGQRVTISCSGSSSNIGSGPVNWYQQLPGTAPKLLIYSDTRRPSGIPDRLSGSKSGTSASLGISGLQSEDEADYYCAAWDDSLNGYAFGSGTKVTVL | 1.13 nM | 24.3 nM | 4.59 nM | no binding (tested: 0.5 µg/ml) | 40.9 nM |  |  |  |  |
| FBE5-A12 (scFv, V domains shown) VH: QVQLVESGGGVVQPGRSLRLSCAASGFTFSSYGMHWVRQAPGKGLEWVAVISYDGSNKYYADSVKGRFTISRDNSKNTLYLQMNSLRGEDTAVYYCAREGGWEPNGLDYWGQGTLVTVSS VL: QAVLTQPPSASGTPGQRVTISCSGSDFNVGTNYVNWYQQLPGSAPKLLIYRNNQRPSGVPDRFSGSKSGTSATLGITGLQTGDEADYYCGTWDSSLSAEVFGGGTKLTVL | 0.555 nM | 2.44 nM | 0.647 nM | no binding (tested: 0.5 µg/ml) |  | ~0.06 µg/mL |  |  |  |
| FBE5-B9 (scFv, V domains shown) VH: EVQLVESRGGVVQPGRSLRLSCAASGFTFSSYGMHWVRQAPGRGLEWVAVISYDGSNKYYADSVKGRFTISRDNSKNTLYLQMNGLRSDDTAVYYCARGGDDYGDYFDYWGQGTLVTVSS VL: QSVLTQPPSVSAAPGQKVTISCSGSSSNIGNNYVSWYQQLPGTAPKLLIYDNNKRPSGIPDRFSGSKSGTSATLGITGLQTGDEADYYCGTWDSSLSAAVFGGGTKLTVL | 1.74 nM | 2.19 nM | 1.12 nM | no binding (tested: 0.5 µg/ml) | 25.9 nM |  | ~0.2 µg/mL | 3.45 nM | 8.27 nM |
| FBE5-C8 (scFv, V domains shown) VH: QMQLVQSGGGVVQPGRSLRLSCAASGFIFSNYGMHWVRQAPGKGLEWVAVISYDGSNKYYADSVKGRFTISRDNSKNTLYLQMDSLRAEDTAVYYCAREGVGGDYGDLPTGPYYYYGMDVWGQGTTVTVSS VL: QSVLTQPPSVSAAPGQKVTISCSGSSSNIGNNSVSWYQQLPGTAPKLLIYDNNKRPSGIPDRFSGSKSGTSATLGITGLQTGDEADYYCETWDSSLSAVVFGGGTKLTVL | 13.5 nM |  | 7 nM | no binding (tested: 0.5 µg/ml) |  |  |  |  |  |
| FBE5-A6 (scFv, V domains shown) VH: QVQLVQSGGGVVQPGRSLRLSCAASGFTFSSYGMHWVRQAPGKGLEWVAVISYDGSNKYYADSVKGRFTISRDNSKNTLYLQMNSLRAEDTAVYYCAKAGDDDYGHYFDYWGQGTLVTVSS VL: not shown | 1.24 nM | 1.9 nM | 1.15 nM | no binding (tested: 0.5 µg/ml) | 8.54 nM |  | ~0.2 µg/mL | 3.54 nM | 13 nM |
| FBE5-F9 (scFv, V domains shown) VH: QMQLVQSGGGVVQPGRSLRLSCAASGFTFSSYGMHWVRQAPGKGLEWVAVISYDGSNKYYADSVKGRFTISRDNSKNTLYLQMNSLRAEDTAVYYCAKEGDGDYGGVLDYWGQGTLVTVSS VL: QSVLTQPPSVSAAPGQKVTISCSGSSSNIEKNYVSWYQQLPGTAPKLLIYDNNKRPSGIPDRFSGSKSGTSATLGITGLQTGDEADYYCGTWDSSLSAVVFGGGTKLTVL | 2.85 nM | 3.16 nM | 1.63 nM | no binding (tested: 0.5 µg/ml) | 21.5 nM |  |  | 6.01 nM | 7.97 nM |
